5 sequences from the supplement of paper PMC5998384 can be followed below.

Series [1] deals with HeLa Kyoto. The experiment in a line: solubility in G1/S (NP-40 vs SDS abundance) (log2 ratio); higher = more soluble. As to conditions: cell cycle stage: G1/S.
Series [2] concerns HeLa Kyoto. Description: melting temperature (median over replicates), in situ; higher = more thermally stable.
In series [3] the test system is HeLa Kyoto. The experiment in a line: solubility change mitosis vs G1/S (difference of NP-40 vs SDS log2 ratios) (log2 ratio difference); higher = more soluble in mitosis.
Series [4] relates to HeLa Kyoto. Description: thermal stability score vs G1/S (z-score of summed log2 fold changes over temperatures); higher = more thermally stable than in G1/S.
The mark [5] stands for this setting: cell cycle stage: early G1 (4.5 h after nocodazole release).
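Throughout, for melting temperature (median over replicates), in situ: HeLa Kyoto cells synchronized by double thymidine or nocodazole block, proteins quantified by TMT10plex mass spectrometry, three independent biological replicates.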
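Throughout, for solubility change mitosis vs G1/S (difference of NP-40 vs SDS log2 ratios): synchronized HeLa Kyoto cells (double thymidine block for G1/S, nocodazole release for mitosis), protein amounts in NP-40 versus SDS lysates quantified by mass spectrometry, three biological replicates.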
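Throughout, for solubility in G1/S (NP-40 vs SDS abundance): HeLa Kyoto cells arrested at G1/S by double thymidine block, proteins quantified by TMT10plex mass spectrometry in mild NP-40 versus SDS extracts, three biological replicates.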
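Throughout, for thermal stability score vs G1/S (z-score of summed log2 fold changes over temperatures): synchronized HeLa Kyoto cells, proteins quantified by TMT10plex mass spectrometry, three biological replicates, mitosis taken 0.5 h after nocodazole release, G1/S directly after double thymidine block.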

For the sequence “MGLADASGPRDTQALLSATQAMDLRRRDYHMERPLLNQEHLEELGRWGSAPRTHQWRTWLQCSRARAYALLLQHLPVLVWLPRYPVRDWLLGDLLSGLSVAIMQLPQGLAYALLAGLPPVFGLYSSFYPVFIYFLFGTSRHISVGTFAVMSVMVGSVTESLAPQALNDSMINETARDAARVQVASTLSVLVGLFQVGLGLIHFGFVVTYLSEPLVRGYTTAAAVQVFVSQLKYVFGLHLSSHSGPLSLIYTVLEVCWKLPQSKVGTVVTAAVAGVVLVVVKLLNDKLQQQLPMPIPGELLTLIGATGISYGMGLKHRFEVDVVGNIPAGLVPPVAPNTQLFSKLVGSAFTIAVVGFAIAISLGKIFALRHGYRVDSNQELVALGLSNLIGGIFQCFPVSCSMSRSLVQESTGGNSQVAGAISSLFILLIIVKLGELFHDLPKAVLAAIIIVNLKGMLRQLSDMRSLWKANRADLLIWLVTFTATILLNLDLGLVVAVIFSLLLVVVRTQMPHYSVLGQVPDTDIYRDVAEYSEAKEVRGVKVFRSSATVYFANAEFYSDALKQRCGVDVDFLISQKKKLLKKQEQLKLKQLQKEEKLRKQAASPKGASVSINVNTSLEDMRSNNVEDCKMMQVSSGDKMEDATANGQEDSKAPDGSTLKALGLPQPDFHSLILDLGALSFVDTVCLKSLKNIFHDFREIEVEVYMAACHSPVVSQLEAGHFFDASITKKHLFASVHDAVTFALQHPRPVPDSPVSVTRL [SLC26A6]”, the “solubility in G1/S (log2)” value in series [1] was -0.00184. Moreover, the melting temperature in series [2] (cell cycle stage: G1/S) is 56.6 °C; in series [2] (cell cycle stage: mitosis), 56 °C. For the same sequence, the “solubility change mitosis (log2)” value in series [3] is -0.0476. Also, the results for the thermal stability score in series [4] (setting [5]) and in series [4] (cell cycle stage: mitosis) were -1.84 and -2.56, respectively.
Consider “MGLLAFLKTQFVLHLLVGFVFVVSGLVINFVQLCTLALWPVSKQLYRRLNCRLAYSLWSQLVMLLEWWSCTECTLFTDQATVERFGKEHAVIILNHNFEIDFLCGWTMCERFGVLGSSKVLAKKELLYVPLIGWTWYFLEIVFCKRKWEEDRDTVVEGLRRLSDYPEYMWFLLYCEGTRFTETKHRVSMEVAAAKGLPVLKYHLLPRTKGFTTAVKCLRGTVAAVYDVTLNFRGNKNPSLLGILYGKKYEADMCVRRFPLEDIPLDEKEAAQWLHKLYQEKDALQEIYNQKGMFPGEQFKPARRPWTLLNFLSWATILLSPLFSFVLGVFASGSPLLILTFLGFVGAASFGVRRLIGVTEIEKGSSYGNQEFKKKE [AGPAT3]”, for which, in series [1], the “solubility in G1/S (log2)” value was -0.0836. Further, the melting temperature in series [2] (cell cycle stage: G1/S) worked out at 52.2 °C; in series [2] (cell cycle stage: mitosis), 52.4 °C. For the same sequence, the “solubility change mitosis (log2)” value in series [3] is -0.0117. Also, the thermal stability score in series [4] (setting [5]) was -0.691; in series [4] (cell cycle stage: mitosis), -1.45.
For “MGLLLMILASAVLGSFLTLLAQFFLLYRRQPEPPADEAARAGEGFRYIKPVPGLLLREYLYGGGRDEEPSGAAPEGGATPTAAPETPAPPTRETCYFLNATILFLFRELRDTALTRRWVTKKIKVEFEELLQTKTAGRLLEGLSLRDVFLGETVPFIKTIRLVRPVVPSATGEPDGPEGEALPAACPEELAFEAEVEYNGGFHLAIDVDLVFGKSAYLFVKLSRVVGRLRLVFTRVPFTHWFFSFVEDPLIDFEVRSQFEGRPMPQLTSIIVNQLKKIIKRKHTLPNYKIRFKPFFPYQTLQGFEEDEEHIHIQQWALTEGRLKVTLLECSRLLIFGSYDREANVHCTLELSSSVWEEKQRSSIKTVELIKGNLQSVGLTLRLVQSTDGYAGHVIIETVAPNSPAAIADLQRGDRLIAIGGVKITSTLQVLKLIKQAGDRVLVYYERPVGQSNQGAVLQDNFGQLEENFLSSSCQSGYEEEAAGLTVDTESRELDSEFEDLASDVRAQNEFKDEAQSLSHSPKRVPTTLSIKPLGAISPVLNRKLAVGSHPLPPKIQSKDGNKPPPLKTSEITDPAQVSKPTQGSAFKPPVPPRPQAKVPLPSADAPNQAEPDVLVEKPEKVVPPPLVDKSAEKQAKNVDAIDDAAAPKQFLAKQEVAKDVTSETSCPTKDSSDDRQTWESSEILYRNKLGKWTRTRASCLFDIEACHRYLNIALWCRDPFKLGGLICLGHVSLKLEDVALGCLATSNTEYLSKLRLEAPSPKAIVTRTALRNLSMQKGFNDKFCYGDITIHFKYLKEGESDHHVVTNVEKEKEPHLVEEVSVLPKEEQFVGQMGLTENKHSFQDTQFQNPTWCDYCKKKVWTKAASQCMFCAYVCHKKCQEKCLAETSVCGATDRRIDRTLKNLRLEGQETLLGLPPRVDAEASKSVNKTTGLTRHIINTSSRLLNLRQVSKTRLSEPGTDLVEPSPKHTPNTSDNEGSDTEVCGPNSPSKRGNSTGIKLVRKEGGLDDSVFIAVKEIGRDLYRGLPTEERIQKLEFMLDKLQNEIDQELEHNNSLVREEKETTDTRKKSLLSAALAKSGERLQALTLLMIHYRAGIEDIETLESLSLDQHSKKISKYTDDTEEDLDNEISQLIDSQPFSSISDDLFGPSESV [PDZD8]”, in series [1], the “solubility in G1/S (log2)” value is -0.312. For the same sequence, the melting temperature in series [2] (cell cycle stage: G1/S) worked out at 51.8 °C; in series [2] (cell cycle stage: mitosis) it was 52.2 °C. Also, the “solubility change mitosis (log2)” value in series [3] was -0.0986. Also, the thermal stability score was -1.18 in series [4] (setting [5]) and -0.643 in series [4] (cell cycle stage: mitosis).
“MGLLSDPVRRRALARLVLRLNAPLCVLSYVAGIAWFLALVFPPLTQRTYMSENAMGSTMVEEQFAGGDRARAFARDFAAHRKKSGALPVAWLERTMRSVGLEVYTQSFSRKLPFPDETHERYMVSGTNVYGILRAPRAASTESLVLTVPCGSDSTNSQAVGLLLALAAHFRGQIYWAKDIVFLVTEHDLLGTEAWLEAYHDVNVTGMQSSPLQGRAGAIQAAVALELSSDVVTSLDVAVEGLNGQLPNLDLLNLFQTFCQKGGLLCTLQGKLQPEDWTSLDGPLQGLQTLLLMVLRQASGRPHGSHGLFLRYRVEALTLRGINSFRQYKYDLVAVGKALEGMFRKLNHLLERLHQSFFLYLLPGLSRFVSIGLYMPAVGFLLLVLGLKALELWMQLHEAGMGLEEPGGAPGPSVPLPPSQGVGLASLVAPLLISQAMGLALYVLPVLGQHVATQHFPVAEAEAVVLTLLAIYAAGLALPHNTHRVVSTQAPDRGWMALKLVALIYLALQLGCIALTNFSLGFLLATTMVPTAALAKPHGPRTLYAALLVLTSPAATLLGSLFLWRELQEAPLSLAEGWQLFLAALAQGVLEHHTYGALLFPLLSLGLYPCWLLFWNVLFWK [GPAA1]”: the “solubility in G1/S (log2)” value in series [1] was -0.07. For the same sequence, the values for the melting temperature in series [2] (cell cycle stage: G1/S) and in series [2] (cell cycle stage: mitosis) were 53.7 °C and 53.4 °C, respectively. For the same sequence, the “solubility change mitosis (log2)” value in series [3] is -0.232. In addition, the thermal stability score was found to be 0.0135 in series [4] (setting [5]) and 0.0397 in series [4] (cell cycle stage: mitosis).
Regarding “MGLLSQGSPLSWEETKRHADHVRRHGILQFLHIYHAVKDRHKDVLKWGDEVEYMLVSFDHENKKVRLVLSGEKVLETLQEKGERTNPNHPTLWRPEYGSYMIEGTPGQPYGGTMSEFNTVEANMRKRRKEATSILEENQALCTITSFPRLGCPGFTLPEVKPNPVEGGASKSLFFPDEAINKHPRFSTLTRNIRHRRGEKVVINVPIFKDKNTPSPFIETFTEDDEASRASKPDHIYMDAMGFGMGNCCLQVTFQACSISEARYLYDQLATICPIVMALSAASPFYRGYVSDIDCRWGVISASVDDRTREERGLEPLKNNNYRISKSRYDSIDSYLSKCGEKYNDIDLTIDKEIYEQLLQEGIDHLLAQHVAHLFIRDPLTLFEEKIHLDDANESDHFENIQSTNWQTMRFKPPPPNSDIGWRVEFRPMEVQLTDFENSAYVVFVVLLTRVILSYKLDFLIPLSKVDENMKVAQKRDAVLQGMFYFRKDICKGGNAVVDGCGKAQNSTELAAEEYTLMSIDTIINGKEGVFPGLIPILNSYLENMEVDVDTRCSILNYLKLIKKRASGELMTVARWMREFIANHPDYKQDSVITDEMNYSLILKCNQIANELCECPELLGSAFRKVKYSGSKTDSSN [GCLC]”, in series [1], the “solubility in G1/S (log2)” value was 0.0288. Also, the figures for the melting temperature in series [2] (cell cycle stage: G1/S) and in series [2] (cell cycle stage: mitosis) were 52 °C and 51.8 °C, respectively. Moreover, the “solubility change mitosis (log2)” value in series [3] was -0.172. Moreover, the thermal stability score in series [4] (setting [5]) was -0.677; in series [4] (cell cycle stage: mitosis), -1.1.
